For assay [1], the target named is T1, Tef1 on C. albicans strain SC5314 hyphae (Candida albicans, UniProt P0CY35 2-458).
T1 construct: whole, on cells; The stained target is the whole fungal cell; also called C. albicans hyphae
T1 sequence (looked up): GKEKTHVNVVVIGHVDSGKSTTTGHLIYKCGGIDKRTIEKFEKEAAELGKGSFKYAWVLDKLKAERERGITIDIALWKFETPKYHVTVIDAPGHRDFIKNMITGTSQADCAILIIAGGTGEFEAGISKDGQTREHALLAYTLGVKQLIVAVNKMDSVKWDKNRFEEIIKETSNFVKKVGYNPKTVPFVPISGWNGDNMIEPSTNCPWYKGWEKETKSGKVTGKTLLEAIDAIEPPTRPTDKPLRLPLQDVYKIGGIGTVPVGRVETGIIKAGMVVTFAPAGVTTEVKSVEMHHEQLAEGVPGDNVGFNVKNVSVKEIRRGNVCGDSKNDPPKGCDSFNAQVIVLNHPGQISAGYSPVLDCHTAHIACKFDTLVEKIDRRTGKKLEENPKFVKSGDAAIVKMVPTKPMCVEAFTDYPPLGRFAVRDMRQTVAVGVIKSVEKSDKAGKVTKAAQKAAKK
Kind of assay: flow cytometry on C. albicans. Background: In flow cytometry, cells or beads pass a laser one at a time.

The target of assay [2] is T2, Pra1 on C. albicans strain SC5314 hyphae (Candida albicans, UniProt P87020 16-299).
T2 construct: whole, on cells; The stained target is the whole fungal cell; also called C. albicans hyphae
T2 sequence (looked up): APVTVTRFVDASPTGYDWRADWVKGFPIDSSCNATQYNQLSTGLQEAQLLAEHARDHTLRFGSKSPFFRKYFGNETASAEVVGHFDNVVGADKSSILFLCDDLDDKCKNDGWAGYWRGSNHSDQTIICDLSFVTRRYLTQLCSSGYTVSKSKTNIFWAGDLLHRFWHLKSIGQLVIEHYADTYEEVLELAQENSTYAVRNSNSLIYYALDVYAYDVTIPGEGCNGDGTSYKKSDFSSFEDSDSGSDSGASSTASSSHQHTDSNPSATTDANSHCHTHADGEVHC
Kind of assay: flow cytometry and confocal microscopy, summary.

B1: monoclonal antibody 5E1 directed against Tef1 of Candida albicans, produced by the hybridoma cell line DSM ACC 3368 (antibody)
heavy: EVKLVESGGGLVKPGGSLKLSCAASGFTFSSYAMSWVRQTPEKRLEWVASISSGGSTYYPDSVKGRFTISRDNARNILYLQMSSLRSEDTAMYYCARGYDGYDYWGQGTTLTVSSESQSFPNVFPLVSCESPLSDKNLVAMGCLARDFLPSTISFTWNYQNNTEVIQGIRTFPTLRTGGKYLATSQVLLSPKSILEGSDEYLVCKIHYGGKNRDLHVPIPAVAEMNPNVNVFVPPRDGFSGPAPRKSKLICEATNFTPKPITVSWLKDGKLVESGFTTDPVTIENKGSTPQTYKVISTLTISEIDWLNLNVYTCRVDHRGLTFLKNVSSTCAASPSTDILTFTIPPSFADIFLSKSANLTCLVSNLATYETLNISWASQSGEPLETKIKIMESHPNGTFSAKGVASVCVEDWNNRKEFVCTVTHRDLPSPQKKFISKPNEVHKHPPAVYLLPPAREQLNLRESATVTCLVKGFSPADISVQWLQRGQLLPQEKYVTSAPMPEPGAPGFYFTHSILTVTEEEWNSGETYTCVVGHEALPHLVTERTVDKSTGKPTLYNVSLIMSDTGGTCY
light: not shown
notes: Mouse IgM, kappa from hybridoma; also called mAb 5E1; anti-Tef1 mAb 5E1
As to B1, the binding result in assay [1] is listed as “binds”.

B2: monoclonal antibody 8C3 directed against Pra1 of Candida albicans, produced by the hybridoma cell line DSM ACC 3369 (antibody, mouse IgG1, kappa, V domains shown)
VH: EVQLVESGGDLVKPGGSLKLSCAASGFTFSTYGMSWVRQTPDKRLEWVATISSGGSYTYYPDSVKGRFTISRDNVKNTLYLQMSSLKSEDTAMYYCARQGLDDNYAEWYFDVWGAGTTVTVSS
VL: DILLTQSPATLSVTPGETVSLSCRASQSIYKNLHWYQQKSHRSPRLLIKYASDSISGIPSRFTGSGSGTDYTLSINSVKPEDEGKYYCLQGFSTPWTFGGGTKLEIKR
notes: Mouse IgG1, kappa from hybridoma; also called mAb 8C3; anti-Pra1 mAb 8C3
In the case of B2, the binding result in assay [2] is reported as “binds”.

For the origin of these results see patent US20240352099A1 (JULIUS MAXIMILIANS UNIVERSIT T W RZBURG, published 2024).
